# Source: paper PMC9492545 (Nature, 2022)
# Target: T1, SARS-CoV-2 nsp12 (RNA-dependent RNA polymerase with N-terminal NiRAN domain) (SARS-CoV-2, UniProt P0DTD1)
# T1 construct: also called WT nsp12; RdRp
# Test: cryo-EM structure
# Settings: both partners purified
binder,measurement,value
"SARS-CoV-2 nsp9 (native N terminus) (natural protein, also called native nsp9) NNELSPVALRQMSCAAGTTQTACTDDNALAYYNTTKGGRFVLALLSDLQDLKWARFPKSDGTGTIYTELEPPCRFVTDTPKGPKVKYLYFIKGLNNLNRGMVLGSLAATVRLQ",binding result,binds
